Target: affinity-matured, humanized, antiprostate stem-cell antigen (PSCA) minibody (clone A11.1 2C3)
Experiment: SEC

B1: affinity-matured, humanized, antiprostate stem-cell antigen (PSCA) minibody (clone A11.1 2C3) (antibody, V domains shown)
VH: EVQLVEYGGGLVQPGGSLRLSCAASGFNIKDYYIHWVRQAPGKGLEWVAWIDPENGDTEFVPKFQGRATMSADTSKNTAYLQMNSLRAEDTAVYYCKTGGFWGQGTLVTVSS
VL: DIQLTQSPSTLSASMGDRVTITCSASSSVRFIHWYQQKPGKAPKRLIYDTSKLASGVPSRFSGSGSGTDFTLTISSLQPEDFATYYCQQWGSSPFTFGQGTKVEIK
  stoichiometry N: 2

— publication PMC3187938
